*1 amine or outer side, *2 acyl side, *3 side chain or, on linkers, in order; H or OH if unused. Where no end group is shown, it is not given here. Side-chain parts run from the residue outwards. [ ]: non-standard residue; d: D form. The star is where a group is joined. γGlu = O=C(O)[C@H](CCC(=O)[*:2])N[*:1]; Palmitoyl = CCCCCCCCCCCCCCCC(=O)*; Aib = CC(C)(N)C(=O)O
Tests used:
human GLP-1 receptor = human GLP-1 receptor (human, UniProt P43220 24-463); assay: cell-based or functional assay
human glucagon receptor = human glucagon receptor (human, UniProt P47871 26-477); assay: cell-based or functional assay
Sequence of human glucagon receptor (P47871 26-477): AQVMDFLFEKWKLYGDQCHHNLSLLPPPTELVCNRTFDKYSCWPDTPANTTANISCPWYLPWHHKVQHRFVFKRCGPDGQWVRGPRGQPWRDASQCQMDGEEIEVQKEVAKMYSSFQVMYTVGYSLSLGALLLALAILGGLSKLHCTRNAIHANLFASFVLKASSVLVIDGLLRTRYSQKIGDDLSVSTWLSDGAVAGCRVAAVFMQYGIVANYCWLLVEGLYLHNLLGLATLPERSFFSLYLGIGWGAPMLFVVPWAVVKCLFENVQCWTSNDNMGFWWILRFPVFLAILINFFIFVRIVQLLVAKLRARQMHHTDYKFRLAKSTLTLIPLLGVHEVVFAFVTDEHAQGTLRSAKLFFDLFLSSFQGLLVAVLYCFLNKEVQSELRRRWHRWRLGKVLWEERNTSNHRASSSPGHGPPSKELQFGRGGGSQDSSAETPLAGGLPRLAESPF

Binder | EC50 hGLP-1R (cAMP formation) (human GLP-1 receptor) | EC50 hGlucagonR (cAMP formation) (human glucagon receptor)
H[dS]QGTFTSDLSKQMDSRRAQDFIEWLKN[dA]GPSSGAPPPSK([γGlu-Palmitoyl])-NH2 [SEQ ID NO: (68)] | 0.0123 nM | –
H[dS]QGTFTSDLSKQMDSRRAQDFIEWLKNTGPSSGAPPPSK([γGlu-Palmitoyl])-NH2 (N-terminus assumed; SMILES CCCCCCCCCCCCCCCC(=O)N[C@@H](CCC(=O)NCCCC[C@H](NC(=O)[C@H](CO)NC(=O)[C@@H]1CCCN1C(=O)[C@@H]1CCCN1C(=O)[C@@H]1CCCN1C(=O)[C@H](C)NC(=O)CNC(=O)[C@H](CO)NC(=O)[C@H](CO)NC(=O)[C@@H]1CCCN1C(=O)CNC(=O)[C@@H](NC(=O)[C@H](CC(N)=O)NC(=O)[C@H](CCCCN)NC(=O)[C@H](CC(C)C)NC(=O)[C@H](Cc1c[nH]c2ccccc12)NC(=O)[C@H](CCC(=O)O)NC(=O)[C@@H](NC(=O)[C@H](Cc1ccccc1)NC(=O)[C@H](CC(=O)O)NC(=O)[C@H](CCC(N)=O)NC(=O)[C@H](C)NC(=O)[C@H](CCCNC(=N)N)NC(=O)[C@H](CCCNC(=N)N)NC(=O)[C@H](CO)NC(=O)[C@H](CC(=O)O)NC(=O)[C@H](CCSC)NC(=O)[C@H](CCC(N)=O)NC(=O)[C@H](CCCCN)NC(=O)[C@H](CO)NC(=O)[C@H](CC(C)C)NC(=O)[C@H](CC(=O)O)NC(=O)[C@H](CO)NC(=O)[C@@H](NC(=O)[C@H](Cc1ccccc1)NC(=O)[C@@H](NC(=O)CNC(=O)[C@H](CCC(N)=O)NC(=O)[C@@H](CO)NC(=O)[C@@H](N)Cc1c[nH]cn1)[C@@H](C)O)[C@@H](C)O)[C@@H](C)CC)[C@@H](C)O)C(N)=O)C(=O)O) [SEQ ID NO: (71)] | 0.0056 nM | –
H[Aib]QGTFTSDLSKQMESRRAQDFIEWLKNGGPSSGAPPPSK([γGlu-Palmitoyl])-NH2 (N-terminus assumed; SMILES CCCCCCCCCCCCCCCC(=O)N[C@@H](CCC(=O)NCCCC[C@H](NC(=O)[C@H](CO)NC(=O)[C@@H]1CCCN1C(=O)[C@@H]1CCCN1C(=O)[C@@H]1CCCN1C(=O)[C@H](C)NC(=O)CNC(=O)[C@H](CO)NC(=O)[C@H](CO)NC(=O)[C@@H]1CCCN1C(=O)CNC(=O)CNC(=O)[C@H](CC(N)=O)NC(=O)[C@H](CCCCN)NC(=O)[C@H](CC(C)C)NC(=O)[C@H](Cc1c[nH]c2ccccc12)NC(=O)[C@H](CCC(=O)O)NC(=O)[C@@H](NC(=O)[C@H](Cc1ccccc1)NC(=O)[C@H](CC(=O)O)NC(=O)[C@H](CCC(N)=O)NC(=O)[C@H](C)NC(=O)[C@H](CCCNC(=N)N)NC(=O)[C@H](CCCNC(=N)N)NC(=O)[C@H](CO)NC(=O)[C@H](CCC(=O)O)NC(=O)[C@H](CCSC)NC(=O)[C@H](CCC(N)=O)NC(=O)[C@H](CCCCN)NC(=O)[C@H](CO)NC(=O)[C@H](CC(C)C)NC(=O)[C@H](CC(=O)O)NC(=O)[C@H](CO)NC(=O)[C@@H](NC(=O)[C@H](Cc1ccccc1)NC(=O)[C@@H](NC(=O)CNC(=O)[C@H](CCC(N)=O)NC(=O)C(C)(C)NC(=O)[C@@H](N)Cc1c[nH]cn1)[C@@H](C)O)[C@@H](C)O)[C@@H](C)CC)C(N)=O)C(=O)O) [SEQ ID NO: (62)] | 0.0063 nM | 0.13 nM
HSQGTFTSDLSKQMDSRRAQDFIEWLKNGGPSSGAPPPK([γGlu-Palmitoyl])-NH2 [SEQ ID NO: (6)] | 0.0031 nM | –
H[dS]QGTFTSDLSKQMESRRAQDFIEWLKNGGPSSGAPPPSK([γGlu-Palmitoyl])-NH2 (N-terminus assumed; SMILES CCCCCCCCCCCCCCCC(=O)N[C@@H](CCC(=O)NCCCC[C@H](NC(=O)[C@H](CO)NC(=O)[C@@H]1CCCN1C(=O)[C@@H]1CCCN1C(=O)[C@@H]1CCCN1C(=O)[C@H](C)NC(=O)CNC(=O)[C@H](CO)NC(=O)[C@H](CO)NC(=O)[C@@H]1CCCN1C(=O)CNC(=O)CNC(=O)[C@H](CC(N)=O)NC(=O)[C@H](CCCCN)NC(=O)[C@H](CC(C)C)NC(=O)[C@H](Cc1c[nH]c2ccccc12)NC(=O)[C@H](CCC(=O)O)NC(=O)[C@@H](NC(=O)[C@H](Cc1ccccc1)NC(=O)[C@H](CC(=O)O)NC(=O)[C@H](CCC(N)=O)NC(=O)[C@H](C)NC(=O)[C@H](CCCNC(=N)N)NC(=O)[C@H](CCCNC(=N)N)NC(=O)[C@H](CO)NC(=O)[C@H](CCC(=O)O)NC(=O)[C@H](CCSC)NC(=O)[C@H](CCC(N)=O)NC(=O)[C@H](CCCCN)NC(=O)[C@H](CO)NC(=O)[C@H](CC(C)C)NC(=O)[C@H](CC(=O)O)NC(=O)[C@H](CO)NC(=O)[C@@H](NC(=O)[C@H](Cc1ccccc1)NC(=O)[C@@H](NC(=O)CNC(=O)[C@H](CCC(N)=O)NC(=O)[C@@H](CO)NC(=O)[C@@H](N)Cc1c[nH]cn1)[C@@H](C)O)[C@@H](C)O)[C@@H](C)CC)C(N)=O)C(=O)O) [SEQ ID NO: (61)] | 0.0042 nM | 0.0304 nM
HGEGTFTSDLSKQMDSRRAQDFIEWLKNGGPSSGAPPPS-NH2 [SEQ ID NO: (4)] | 0.0174 nM | 565 nM
H[dS]QGTFTSDLSKQMDSRRAQDFIEWLKNAGPSSGAPPPSK([γGlu-Palmitoyl])-NH2 [SEQ ID NO: (67)] | 0.0215 nM | –
H[Aib]QGTFTSDLSKQMDSRRAQDFIEWLKNGGPSSGAPPPSK([γGlu-Palmitoyl])-NH2 (N-terminus assumed; SMILES CCCCCCCCCCCCCCCC(=O)N[C@@H](CCC(=O)NCCCC[C@H](NC(=O)[C@H](CO)NC(=O)[C@@H]1CCCN1C(=O)[C@@H]1CCCN1C(=O)[C@@H]1CCCN1C(=O)[C@H](C)NC(=O)CNC(=O)[C@H](CO)NC(=O)[C@H](CO)NC(=O)[C@@H]1CCCN1C(=O)CNC(=O)CNC(=O)[C@H](CC(N)=O)NC(=O)[C@H](CCCCN)NC(=O)[C@H](CC(C)C)NC(=O)[C@H](Cc1c[nH]c2ccccc12)NC(=O)[C@H](CCC(=O)O)NC(=O)[C@@H](NC(=O)[C@H](Cc1ccccc1)NC(=O)[C@H](CC(=O)O)NC(=O)[C@H](CCC(N)=O)NC(=O)[C@H](C)NC(=O)[C@H](CCCNC(=N)N)NC(=O)[C@H](CCCNC(=N)N)NC(=O)[C@H](CO)NC(=O)[C@H](CC(=O)O)NC(=O)[C@H](CCSC)NC(=O)[C@H](CCC(N)=O)NC(=O)[C@H](CCCCN)NC(=O)[C@H](CO)NC(=O)[C@H](CC(C)C)NC(=O)[C@H](CC(=O)O)NC(=O)[C@H](CO)NC(=O)[C@@H](NC(=O)[C@H](Cc1ccccc1)NC(=O)[C@@H](NC(=O)CNC(=O)[C@H](CCC(N)=O)NC(=O)C(C)(C)NC(=O)[C@@H](N)Cc1c[nH]cn1)[C@@H](C)O)[C@@H](C)O)[C@@H](C)CC)C(N)=O)C(=O)O) [SEQ ID NO: (59)] | 0.0029 nM | 0.0409 nM
